Experimental data taken from US20240309103A1 (Regeneron, published 2024).
Positions count from the first letter of the chain named.

B1: mAb25497 (antibody, human IgG4, V domains shown)
VH: QVQLVQSGAEVKEPGASVKVSCKASGYTFTDYYIHWVRQAPGQGLEWMGWINLNSGGKNHAQKFQGRVTVTSDTSINTAYIELGRLRGDDTAVYYCSRGGGSHYYYYYHGMDVWGQGTTVTVSS
VL: DIQMTQSPSSLSASVGDRITITCRASHSIDSYLNWYQQKPGKAPKLLIYPASTLQSGVPSRFSGSGSGTDFTLTISSLQPEDSAIYYCQQSYSTPLTFGGGTKVEIK
B2: mAb25479 (antibody, human IgG4, V domains shown)
VH: QVQLVQSGAEVKKPGASVKVSCKASGYTFTGYYIHWVRQAPGQGLEWMGWINPNSIGTNYAQKFQGRVTLTRDTSISTAYMELSSLRSDDTAVYYCARGGSSSYYYYYYGMDVWGQGTTVTVSS
VL: B1 VL with I19V, H27Q, S31N, P50V, T53S, S83F, I85T
B3: mAb22035 (antibody, human IgG4, V domains shown)
VH: EVQLVESGGGLVQPGRSLRLSCAASGFTFDDYAMHWVRQAPGKGLEWVSGISWNSGTIGYADSVKGRFTMSRDNAKNSLYLQMNSLRPEDTALYYCAKDMGVSLALWGAFDIWGQGTMVTVSS
VL: DIQMTQSPSSLSASVGDKVTITCRASQNIRTYLNWYQQKPGKAPKVLISTASSLQSGVPSRFSGSGSGTDFTLTISSLQPEDFAVFYCQQSFGIPRTFGQGTKVEIK
B4: mAb25491 (antibody, human IgG4, V domains shown)
VH: QVQLVQSGAEVMKPGASVKVSCKASGYTFTGYYIHWVRQAPGQGLEWMGWITPNSGATNYAQKFQGRVTLTRDTSISTAYMELTRLKSDDTAVYYCARGGQLEFFYYYYGMDVWGQGTTVTVSS
VL: DIQMTQSPSSLSASAGDRVTITCRASQSIDSYLNWYQQKPGKAPKLLISATSGFQSGVPSRFSGSGSGTDFTLTISSLQPEDFGTYYCQQSYTTPITFGQGTRLEIK
B5: mAb25498 (antibody, human IgG4, V domains shown)
VH: QVQLVESGGGVVQPGRSLRLSCVASGFTFSSYGMVWVRQTPGKGLEWVAVIWHDGTNNYYADSVKGRFTISRDNSKNTLYLQMNSLRAEDTAVYYCAREPWLVRGYYYYAMDVWGQGTTVTVSS
VL: not shown

molecular target: T1, human NPR1 on HEK293/hNPR1.myc.DDK cells (0 hANP) (human, UniProt P16066 33-1061); experiment: cell-based or functional assay
T1 sequence: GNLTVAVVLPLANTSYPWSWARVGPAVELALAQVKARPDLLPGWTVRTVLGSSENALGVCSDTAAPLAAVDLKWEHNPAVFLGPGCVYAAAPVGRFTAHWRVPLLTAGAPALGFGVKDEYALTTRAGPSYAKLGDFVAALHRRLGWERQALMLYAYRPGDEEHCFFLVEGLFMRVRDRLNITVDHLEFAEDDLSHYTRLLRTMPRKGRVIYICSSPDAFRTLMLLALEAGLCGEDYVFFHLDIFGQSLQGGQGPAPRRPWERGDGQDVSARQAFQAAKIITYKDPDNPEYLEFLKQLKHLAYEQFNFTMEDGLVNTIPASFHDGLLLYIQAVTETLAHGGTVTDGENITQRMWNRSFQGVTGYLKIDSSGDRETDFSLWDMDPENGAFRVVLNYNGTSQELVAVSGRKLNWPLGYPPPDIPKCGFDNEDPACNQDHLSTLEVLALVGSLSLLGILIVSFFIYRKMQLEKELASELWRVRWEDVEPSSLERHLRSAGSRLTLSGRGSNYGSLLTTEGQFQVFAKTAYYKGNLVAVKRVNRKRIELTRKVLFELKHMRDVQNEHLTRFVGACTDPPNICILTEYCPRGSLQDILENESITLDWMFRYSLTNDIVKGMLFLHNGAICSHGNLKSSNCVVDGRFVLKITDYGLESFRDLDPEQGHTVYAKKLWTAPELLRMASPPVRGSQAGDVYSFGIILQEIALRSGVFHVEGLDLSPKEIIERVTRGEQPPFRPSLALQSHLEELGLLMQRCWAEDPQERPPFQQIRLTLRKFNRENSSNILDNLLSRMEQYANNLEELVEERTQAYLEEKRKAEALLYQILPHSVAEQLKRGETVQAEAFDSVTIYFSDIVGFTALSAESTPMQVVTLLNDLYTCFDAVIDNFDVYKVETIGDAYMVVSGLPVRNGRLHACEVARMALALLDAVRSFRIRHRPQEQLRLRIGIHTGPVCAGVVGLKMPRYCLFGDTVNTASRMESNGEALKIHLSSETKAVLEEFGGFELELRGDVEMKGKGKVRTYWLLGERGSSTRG

Binder | % Activation (vs ANP max), Expt 1 [%] | % Activation (vs. ANP max), Expt II [%] | EC50 (nM), calcium flux, Expt 1 [nM] | EC50 (nM), calcium flux, Expt II [nM]
B1 | 71.1 | 103 | 72.6 | 56.4
B2 | 66.7 | 82.8 | 174 | 102
B3 | 73.1 | 56.8 | 384 | > 200
B4 | 74.6 | 104 | 102 | 43.4
B5 | 67.7 | – | 335 | –

molecular target: T1, human NPR1 on HEK293/hNPR1.myc.DDK …; experiment: ECL cell binding (MSD), 0 hANP
Method: (§1) All cells were washed once with 1×PBS with Ca²⁺/Mg²⁺ and counted with a Cellometer™ Auto T4 cell counter (Nexcelom Bioscience). Approximately 2.0×10⁴ HEK293/hNPR1.myc.DDK or HEK293 cells were seeded separately onto 96-well carbon electrode plates (MULTI-ARRAY high bind plate, Meso Scale Discovery (MSD, Rockville, MD)) and incubated for 1 hour (h) at 37° C. Nonspecific binding sites were blocked by 2% BSA (w/v) in 1×PBS with Ca²⁺/Mg²⁺for 1 h at room temperature (RT). HEK293/hNPR1.myc. […] The plate-bound antibodies were detected with SULFO-TAG™-conjugated goat polyclonal anti-human IgG antibody specific for heavy and light chains (Jackson Immunoresearch, West Grove, PA) for 1 h, RT.
(§2) After washes, plates were developed with Read Buffer (MSD, Rockville, MD) according to manufacturer's recommended procedure and luminescent signals were recorded with a SECTOR Imager 600 (MSD, Rockville, MD). Luminescence intensity, measured in relative light units (RLU), was recorded to indicate the binding intensity of each antibody at the range of concentrations.
(§3) In addition, direct binding signals (RLU) were analyzed as a function of the antibody concentration and data were fitted with a sigmoidal (four-parameter logistic) dose-response model using R statistical package (open source).

Binder | EC50 [nM] | Ratio at 3.7 nM Ab concentration of Cell Binding Signal (RLU) to HEK293/hNPR1.myc.DKK relative to parental HEK293 [ratio]
B1 | 1.5 | 50
B2 | 1.7 | 30
B3 | 2.3 | 151
B4 | 1.6 | 58
B5 | 4.6 | 41

molecular target: T2, human NPR1 on HEK293/hNPR1.myc.DDK cells with 10 nM hANP (NPR1-ANP complex) (human, UniProt P01160 124-151); experiment: ECL cell binding (MSD), +10 nM hANP
T2 construct: also called NPR1-ANP Complex on the Cell Surface
T2 sequence: T1 sequence
T2 sequence (peptide): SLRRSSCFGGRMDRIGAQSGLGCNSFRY
Method: as §1, §2, §3

Binder | EC50 [nM] | Ratio at 3.7 nM Ab concentration of Cell Binding Signal (RLU) to HEK293/hNPR1.myc.DKK relative to parental HEK293 [ratio]
B1 | 0.87 | 87
B2 | 1.2 | 51
B3 | 0.89 | 220
B4 | 1 | 78
B5 | 1.8 | 49

molecular target: T3, mfNPR1-mFc:hBNP complex (monkey; human, UniProt P16860 103-134); experiment: SPR Biacore, mAb captured by anti-human Fc, 37C
T3 construct: Receptor-Fc pre-complexed with 10-fold hBNP
Method: (§4) Equilibrium dissociation constant (KD) for different NPR1 reagents binding to purified anti-NPR1 monoclonal antibodies (mAbs) were determined using a real-time surface plasmon resonance based Biacore 4000 biosensor. All binding studies were performed in 10 mM HEPES, 150 mM NaCl, 3 mM EDTA, and 0.05% v/v Surfactant Tween-20, pH 7.4 (HBS-ET) running buffer at 25° C. and 37° C. The Biacore CM5 sensor chip surface was first derivatized by amine coupling with either mouse anti-human Fc specific mAb (GE Healthcare, #BR100839) or goat anti-human Fcy specific polyclonal antibody (Jackson ImmunoResearch Laboratories, #BR-1008-39) to capture anti-NPR1 mAbs.

Binder | 100 nM Ag Bound (RU) | Kd [nM] | koff [s⁻¹] | kon [M⁻¹ s⁻¹] | t½ [h]
B1 | 100 | 2.9 | 0.000166 | 57400 | 1.16
B2 | 135 | 5.53 | 0.000293 | 53000 | 0.657
B3 | 286 | 0.368 | 9.48e-05 | 258000 | 2.03
B4 | 146 | 1.6 | 0.00011 | 68900 | 1.75
B5 | 113 | 8.91 | 0.000464 | 52100 | 0.415

Molecular target: T4, mNPR1-mFc (mouse)
T4 construct: also called mouse NPR1 extracellular domain expressed with a C-terminal mouse IgG2a
T4 chain: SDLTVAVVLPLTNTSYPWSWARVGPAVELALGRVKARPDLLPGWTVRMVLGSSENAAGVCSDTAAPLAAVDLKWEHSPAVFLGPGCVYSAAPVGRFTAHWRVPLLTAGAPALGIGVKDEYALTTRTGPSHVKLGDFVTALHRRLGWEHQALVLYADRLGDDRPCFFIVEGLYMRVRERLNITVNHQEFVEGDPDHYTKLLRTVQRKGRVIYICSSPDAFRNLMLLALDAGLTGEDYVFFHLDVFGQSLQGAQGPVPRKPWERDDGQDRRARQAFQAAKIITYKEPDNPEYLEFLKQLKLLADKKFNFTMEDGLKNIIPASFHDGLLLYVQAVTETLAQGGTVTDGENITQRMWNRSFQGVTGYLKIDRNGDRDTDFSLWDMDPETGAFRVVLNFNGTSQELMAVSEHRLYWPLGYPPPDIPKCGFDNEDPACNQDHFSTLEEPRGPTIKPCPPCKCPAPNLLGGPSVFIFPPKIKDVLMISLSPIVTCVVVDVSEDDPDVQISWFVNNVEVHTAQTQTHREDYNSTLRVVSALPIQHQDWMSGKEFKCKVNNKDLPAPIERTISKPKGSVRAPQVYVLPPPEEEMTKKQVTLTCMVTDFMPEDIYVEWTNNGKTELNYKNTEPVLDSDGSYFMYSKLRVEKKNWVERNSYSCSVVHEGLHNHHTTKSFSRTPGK
Experiment: SPR Biacore, mAb captured by anti-human Fc, 37C
Method: as §4

Binder | 100 nM Ag Bound (RU) | binding result
B1 | 1 | no binding (tested: 100 nM)
B2 | 2 | –
B3 | 0 | –
B4 | 1 | no binding (tested: 100 nM)
B5 | 0 | no binding (tested: 100 nM)

Molecular target: T4, mNPR1-mFc
Experiment: SPR Biacore, mAb captured by anti-human Fc, 25C
Method: as §4

Binder | 100 nM Ag Bound (RU)
B1 | 1
B2 | -1
B3 | -1
B4 | 1
B5 | 0
